Test: label from the status in PepcDB records

| Sequence | protein production |
| --- | --- |
| EPVQLTVPQMLAQLQGTDTSLRYYAAWWLGKFGLETATAAERQAIVSALIAALADEADRTELGGYPLRRNAARALGKLGDRQAVPALIECLRCEDFYVREAAAIALGQLGDPRAIAPLQSLLEGGVAMARLVPGRPHLVQPVEAVIESLGHLGATEAIALIEPFLAHEMPRVQFAAARALFQLTGDAVYGDRLLAALNSEDVQLRRTALLDLGAMGYLPAAEAILQAGVEASFKLIALHGILGQQLRQAAPAEQTLSLFQGLDQLL | failed |
| TSSTIFSGVAIYVNGYTDPSAEELRKLMMLHGGQYHVYYSRSKTTHIIATNLPNAKIKELKGEKVIRPEWIVESIKAGRLLSYIPYQLYT | not failed |
| MADKAFHTRLINMRRDLHEHPELSFQEVETTKKIRRWLEEEQIEILDVPQLKTAVIAEIKGREDGPVIAIRADIDALPIQEQTNLPFASKVDGTMHACGHDFHTASIIGTAMLLNQRRAELKGTVRFIFQPAEEIAAGARKVLEAGVLNGVSAIFGMHNKPDLPVGTIGVKEGPLMASVDRFEIVIKGKGGHASIPNNSIDPIAAAGQIISGLQSVVSRNISSLQNAVVSITRVQAGTSWNVIPDQAEMEGTVRTFQKEARQAVPEHMRRVAEGIAAGYGAQAEFKWFPYLPSVQNDGTFLNAASEAAARLGYQTVHAEQSPGGEDFALYQEKIPGFFVWMGTNGTEEWHHPAFTLDEEALTVASQYFAELAVIVLETIK | not failed |
| MRSTKIVCTVGPRTDSYEMIEKMIDLGVNVFRINTSHGDWNEQEQKILKIKDLREKKKKPVAILIDLAGPKIRTGYLEKEFVELKEGQIFTLTTKEILGNEHIVSVNLSSLPKDVKKGDTILLSDGEIVLEVIETTDTEVKTVVKVGGKITHRRGVNVPTADLSVESITDRDREFIKLGTLHDVEFFALSFVRKPEDVLKAKEEIRKHGKEIPVISKIETKKALERLEEIIKVSDGIMVARGDLGVEIPIEEVPIVQKEIIKLSKYYSKPVIVATQILESMIENPFPTRAEVTDIANAIFDGADALLLTAETAVGKHPLEAIKVLSKVAKEAEKKLEFFRTIEYDTSDISEAISHACWQLSESLNAKLIITPTISGSTAVRVSKYNVSQPIVALTPEEKTYYRLSLVRKVIPVLAEKCSQELEFIEKGLKKVEEMGLAEKGDLVVLTSGVPGKVGTTNTIRVLKVD | not failed |
| MSRMMKMGTGTLRVILWFASILIWFSIFVPIEYLVNYFSGETTNYILHSDDFMMPIKTHVASTNAIASFPSGLYTTLMIIGYILMLVGVFITIQAVSAIVRHIQEQDYFSTENSQQMNRIVKGQIWILGSSLLMACANQLTVSWLYRISQFGLGWDNLLSAFVDLIIFALIAMIYTRAVNMKTESDLTI | failed |
| MRFKQNADHIVLTHVFNGGSAESAALCPQDKIIALDGYACTDFAAQWARYHVRAKINIHFFRAGILRQTVLTVQATALEHHHHHH | failed |
| MAGLVKKTTGLVGLAVCDTPHERLTILYTKILDLLKHFPKHAAYRKYTEQITSEKLELVKLEPDVKKLENLLQGGEVEEVILQAEKELSLARKMLQWKPWEPLVEEPPANQWKWPI | failed |
| MKKFQEMCQEEFEKIELMARGGQKIVFDGVHNSYGETVIKLYFQLNDPRSLREIQIERDLNLSMVPKIYETGTIEYEGTETLYIIEQKVKGTELRKVLESGKRFSLEEAVTFLEQGLEFIACIENKGIVHRDIKPENIIRADDGRIFFLDFGIARILGADSLTRTGAMMGPHTPGYAAPEQFNNLKKEIDSRADIFSLGVVTYECITGKNPFREGSINALEVLQKTETITPVQYSIKGDTQSQFMALLGAMMGKYPSRRPRTAKQAIDWLKVAKKTFVYE | failed |
| MIKEQSFEWLLEGCHRIADVAVAYYPNYAYACSAVKALRRSIAEHACLLKDLTDQGYTARTAHLTPVQIGILLSYWGMPDHVKDMTVKNPYLLVSKKYAK | failed |
| MRLPPRLALSVLAGRGPSCILGSGAATRKDWQERNRRSFSDLYTQPLPDCDFEESSSWTHKSRSEPTRHIACKKSARNLVRDLLEHQNPSHQLILECNPGPGILTGALLKAGARVVAFESEKMFIPHLESLRKNADGELQVVHCDFFKIDPRYQELVRPDVNSHTIFQNLGIKAVPWSAGVPIKVFGILPNKHERRLLWKILFDLYSCESIYRYGRVELNMFISEKEFRVRC | failed |
| MTDQTYCDRLVQDTPFLTGHGRLSEQQVDRIILQLNRYYPQILTNKEAEKFRNPKASLRVRLCDLLSHLQRSGERDCQEFYRALYIHAQPLHSRLPSRHALQNSDCTELDSGSQSGELSNRGPMSFLAGLGLAVGLALLLYCYPPDPKGLPGTRRVLGFSPVIIDRHVSRYLLAFLADDLGGL | failed |
| MDDGTGAKRTKATVLQRVSSVLNADAHDATALDGGEVGSVYRVSFHDRPDVAVKVDDSPLGIEAAMLQSLDRDTPLPVPEVLHVEPELLVLSFIRGDGRFDERAERDLARHVAALHDTSADVFGFPFDTLSGPFSQSNPWTDSWIDFFRAQRLLPFATAARNEGALPAGEFDRVQRLAETLDARLVEPATPSLLHGDIHPGNAVVADGTVRAVLDPAIYFGHAEVDLAYVDRLDSIGAAFYDEYRQHRDISAGYFEERRDVYVAFHALENVRFFGEDELPRLERALDRLGM | failed |
| MAKLRVGIVFGGKSAEHEVSLQSAKNIVDAIDKTRFDVVLLGIDKAGQWHVNDAENYLQNADDPAHIALRPSAISLAQVPGKHQHQLINAQNGQPLPTVDVIFPIVHGTLGEDGSLQGMLRVANLPFVGSDVLSSAACMDKDVAKRLLRDAGLNIAPFITLTRTNRHAFSFAEVESRLGLPLFVKPANQGSSVGVSKVANEAQYQQAVALAFEFDHKVVVEQGIKGREIECAVLGNDNPQASTCGEIVLNSEFYAYDTKYIDDNGAQVVVPAQIPSEVNDKIRAIAIQAYQTLGCAGMARVDVFLTADNEVVINEINTLPGFTNISMYPKLWQASGLGYTDLISRLIELALERHTANNALKTTM | not failed |
| MSSLLYARVRANARFQQLVARRNRFTLSLFVLILATFYGYIGLVSFWPELIARRLAQGSNMTVGVAAGAFLFVFFCALSAFYVYRANGEFDSLTQALLSGLEEEQGA | failed |
| MSIRILPENEIKPSASAFEIPPLLFANPKNLYTRRAKRLRELAKNNPLRDYLEFAAHLVDIQLTLLETAPIGNYAEKLTAYLTENQGQKPLNKQQFARDEKWLELLLALIKQCKPYATGAILTTLEFLEKASYAELNNLADHLLNERYEQVSPDQSVFIWLALSLYWTQLAQQLPRHTQAEIGERHTCPVCGSAPITSVIHLDKTQGLRYLHCALCESEWNMTRAQCSNCDESGDLNYWSFDTVEAPIKAESCGDCHSYLKVLYQEKDPYVEPLADDLASLMLDIEMEQKGFVRSGLNPFLFSIE | not failed |
| MNIFEQTPPNRRRYGLAAFIGLIAGVVSAFVKWGAEVPLPPRSPVDMFNAACGPESLIRAAGQIDCSRNFLNPPYIFLRDWLGLTDPNAAVYTFAGHVFNWVGVTHIIFSIVFAVGYCVVAEVFPKIKLWQGLLAGALAQLFVHMISFPLMGLTPPLFDLPWYENVSEIFGHLVWFWSIEIIRRDLRNRITHEPDPEIPLGSNR | failed |
| STMEKSVLGGQDQLRVRVTELEDEVRNLRKINRDLFDFSTRFITRPAK | not failed |
| MHVISTSKKTVLSDFADLETKSEYVHQNAEPTDFQFNGQRRVFVEVDKMAGLAVMRIKEKDGKTPEIQRVRKLTIDNAFCVACAKQSLEEIAVGQSGCVKLYNFRTAQLIHRFPADPQRSTVLYMDYNNTDEYIAAVRDGGDISILGTKTKQKTNTFTIDGDSTLVRFHPSKRFHLSIASYKGAVTVYDVQGMRKIFHASEAHSAPCRDISMCTSQPALLVSVGYDCKINIFDIRRNRAQASTDRLTYSHPLSTVALSECGTYLCAGNLKGELIAYDMRSTKAPLAVRSVHDAAVTRVAFVPVPSGDNQQNGSLNSSENATGLATEAPRVERAPSDELRKSIAANLLSTQNQLTSLGYGVSTPTIVRRDSFCEFLDAQGPRAVDRMSTRLGASYRDSFDWETLNRKPQPYETANRQSLCPPVASGPSSVDNSVNSSTTESLQQTLSGPLKDRSNISGDGKLMKIAETDELCEEQSANISVASSTGGGSDKENPPPVDAEMKRRLRLLSASRNSTPHHANITPQSSNPLLKPQQLLAKSSSGLSAQMDADWRKEFSELRDFVDQRCEKVERELEYVTFSNQRLLANKMTNYMDQQVENTREIRDALALLLQGDSFMREFSRLQNENEMLKAKLKFYQEQEQTESCGE | failed |
| SIQKDLANIAEVEVSIPAKLHNSLIGTKGRLIRSIMEECGGVHIHFPVEGSGSDTVVIRGPSSDVEKAKKQLLHLAEEKQTK | not failed |
| MTTLVLVSHPHLADSTSQQFLKASINSDEVLWEHIESQATIDIEKEQAQLRQADRIILQFPLYWYAAPAGLKQWEDTVLTRTFVYGDHRYPLAGKELGIVVTTGMPAKAFQRGGAEQITLDAALAPLAAVANRAKMKWLPTFAIHQFAYLDEPAKLQLVVDYQRYLTQTQPDNLQNKQAWFAQHLPAMIERLPLEQQQAGQLILTAFEQQQTDLEALTDTLGLIKEQEDD | failed |
| MGIQETDPLTQLSLPPGFRFYPTDEELMVQYLCRKAAGYDFSLQLIAEIDLYKFDPWVLPNKALFGEKEWYFFSPRDRKYPNGSRPNRVAGSGYWKATGTDKIISTEGQRVGIKKALVFYIGKAPKGTKTNWIMHEYRLIEPSRRNGSTKLDDWVLCRIYKKQSSAQKQVYDNGIANAREFSNNGTSSTTSSSSHFEDVLDSFHQEIDNRNFQFSNPNRISSLRPDLTEQKTGFHGLADTSNFDWASFAGNVEHNNSVPELGMSHVVPNLEYNCGYLKTEEEVESSHGFNNSGELAQKGYGVDSFGYSGQVGGFGFM | failed |
| MLPDVQLLKPEVPIGLSRVGATGIKKLVEVQREGKRPIILISTFDVFVDLPAHLKGVNLSRNFEVIDEVLETLTAKPIENIEDLVVEIADHLLKRHEYATKAEARMNSELIMRKRTPKTGQRTQEVVKIFGEATLGRDGSKVIMVGVEVTGITACPCAQELVKASSAERLAKMGFDEETIQKILDAIPVATHNQRGRATLKVQVTDSFKVPIAKLIDVAKSSMSYETYEILKREDELAVVEAAHRNTRFVEDGVRYMAMELLKTFPNAPDDILVFLRQENEESIHQHNVVAERFA | failed |
| SKNEKEQLSKAKASVSSLNKVIQTKLTVGNLGLGLVVIQNGPYLQISHLINKGAAASDGILQPGDVLISVGHANVLGYTLREFLKLLQNITIGTVLQIKAYRGFLEIPQEWQD | not failed |
| MRPIPEGYEAVFETVVTPEMTVRFEELGPVHPVYATYWMVKHMELAGRKIILPFLEEGEEGIGSYVEARHLASALPGMRVRVVARHEKTEGNRVYARVEAYNELGDLIGVGRTEQVILPKAKVEALFRRLKERWEAERSPS | not failed |
| MANITFSSPVMAKDVTVYAVAGDRGTILAVAKSHSIPIPFDCQDGECGSCLVQVEHFNPKAKAAVALTEKEKEVLRQLGKITKEEIVDAEVNDIPPRYRLACQCFVRNEDILVKFEGDKTKPQRLAVTPAAAHYKGGMEINTPQEFFSYAAKVEEDAALHYDSLAKAMADAGNAPVAKLFAQLAEFSRLHLAEVKSRAGSIDLSKSVPPDYAWPDHATPERAAVWASDTTLTRLGALKAALQGERRGYEFYRAVEATTKSSEVAAAAKEFVNEEAEHVRILEAWITQEEWSLKHAAKAAENA | failed |
| MERKFMSLQPSISVSEMEPNGTFSNNNSRNCTIENFKREFFPIVYLIIFFWGVLGNGLSIYVFLQPYKKSTSVNVFMLNLAISDLLFISTLPFRADYYLRGSNWIFGDLACRIMSYSLYVNMYSSIYFLTVLSVVRFLAMVHPFRLLHVTSIRSAWILCGIIWILIMASSIMLLDSGSEQNGSVTSCLELNLYKIAKLQTMNYIALVVGCLLPFFTLSICYLLIIRVLLKVEVPESGLRVSHRKALTTIIITLIIFFLCFLPYHTLRTVHLTTWKVGLCKDRLHKALVITLALAAANACFNPLLYYFAGENFKDRLKSALRKGHPQKAKTKCVFPVSVWLRKETRV | failed |

Source: a protein production outcome set (Wang et al. 2014)
